Assay results taken from US20260167699A1 (Chugai, published 2026).

T1: FcγRIIa(R) extracellular domain, C-terminal His tag (human, UniProt P12318 34-217)
T1 construct: extracellular domain; also called 2aR
T1 sequence: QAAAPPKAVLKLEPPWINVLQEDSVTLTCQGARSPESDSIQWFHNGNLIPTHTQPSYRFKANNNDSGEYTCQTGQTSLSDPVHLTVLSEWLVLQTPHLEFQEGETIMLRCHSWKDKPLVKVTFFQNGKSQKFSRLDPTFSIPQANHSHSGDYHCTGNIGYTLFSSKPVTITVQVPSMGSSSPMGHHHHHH

T2: FcγRIIa(H) extracellular domain, C-terminal His tag (human, UniProt P12318 34-217)
T2 construct: extracellular domain; also called 2aH
T2 sequence: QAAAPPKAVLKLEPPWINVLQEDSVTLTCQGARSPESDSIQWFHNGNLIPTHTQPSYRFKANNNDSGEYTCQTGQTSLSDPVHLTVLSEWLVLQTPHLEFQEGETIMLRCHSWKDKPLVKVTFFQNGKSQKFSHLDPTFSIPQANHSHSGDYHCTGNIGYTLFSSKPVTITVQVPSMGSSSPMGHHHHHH

T3: FcγRIIb extracellular domain, C-terminal His tag (human, UniProt P31994 43-217)
T3 construct: extracellular domain; also called 2b
T3 sequence: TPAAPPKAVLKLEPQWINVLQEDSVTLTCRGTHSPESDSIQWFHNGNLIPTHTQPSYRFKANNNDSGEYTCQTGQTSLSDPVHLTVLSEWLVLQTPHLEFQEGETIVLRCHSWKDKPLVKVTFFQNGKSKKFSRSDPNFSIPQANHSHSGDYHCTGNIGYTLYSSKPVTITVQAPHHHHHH


How the values were obtained:
Experiment in all cases: SPR; He Ab vs HeCon Ab (GpH7-A5/GpH7-B3/GpL16-k0)=100;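 note: surface plasmon resonance at 25 °C with the test antibody captured on a sensor chip via antigenic peptide, protein L or protein A/G and FcγR flowed over as analyte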
[1] = target: T1, FcγRIIa(R) extracellular domain, …
Description: (§1) The antibody of interest was analyzed for its interaction with FcγR using a BiaCore™ T100, BiaCore™ A100, or BiaCore™ 4000 surface plasmon resonance system (GE Healthcare Japan Corp.). The running buffer used was HBS-EP+ (GE Healthcare Japan Corp.). The assay temperature was set to 25° C. The sensor chips used were: a chip prepared by immobilizing antigenic peptides onto Series S Sensor Chip CM5 (GE Healthcare Japan Corp.) by the amine coupling method; a chip prepared by immobilizing antigenic peptides biotinylated in advance onto Series S Sensor Chip SA (certified) (GE Healthcare Japan Corp.) through their interaction; a chip prepared by immobilizing protein L (ACTIGEN, BioVision, Inc.) onto Series S Sensor Chip CM5 (GE Healthcare Japan Corp.); and a chip prepared by immobilizing protein A/G (Thermo Fisher Scientific K.K.) onto Series S Sensor Chip CM5 (GE Healthcare Japan Corp.). The antibody of interest was captured onto any of these chips and allowed to interact with FcγR diluted with a running buffer. The antibody captured on the chip was washed off through the reaction of 10 mM glycine-HCl (pH 1.5) to regenerate the chip, which was repetitively used.

[2] = target: T4, FcγRIIIa extracellular domain, C-terminal His tag (human, UniProt P08637 17-208)
T4 construct: extracellular domain; also called 3a
T4 sequence (P08637 other isoform, or with tags, fused parts or gaps): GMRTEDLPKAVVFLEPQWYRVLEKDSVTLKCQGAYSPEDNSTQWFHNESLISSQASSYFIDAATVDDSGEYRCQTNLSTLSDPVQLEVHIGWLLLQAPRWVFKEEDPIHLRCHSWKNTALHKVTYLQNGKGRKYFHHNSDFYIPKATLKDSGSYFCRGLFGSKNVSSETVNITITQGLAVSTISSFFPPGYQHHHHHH
Description: as §1

[3] = target: T2, FcγRIIa(H) extracellular domain, …
Description: as §1

[4] = target: T3, FcγRIIb extracellular domain, …
Description: as §1

[5] = target: T5, FcγRIa extracellular domain, C-terminal His tag (human, UniProt P12314 16-292)
T5 construct: extracellular domain; also called 1a
T5 sequence (P12314 other isoform, or with tags, fused parts or gaps): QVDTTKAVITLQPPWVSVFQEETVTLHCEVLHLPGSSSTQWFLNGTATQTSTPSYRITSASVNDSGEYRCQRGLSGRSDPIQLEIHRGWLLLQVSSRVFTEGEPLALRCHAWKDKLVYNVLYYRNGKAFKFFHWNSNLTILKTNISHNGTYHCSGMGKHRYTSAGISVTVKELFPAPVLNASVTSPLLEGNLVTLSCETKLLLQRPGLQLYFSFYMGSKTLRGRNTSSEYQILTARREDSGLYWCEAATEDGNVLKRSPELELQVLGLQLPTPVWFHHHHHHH
Description: as §1

| He/Con 2aR [1] | He/Con 3a [2] | He/Con 2aH [3] | He/Con 2b [4] | He/Con 1a [5] | Binder |
| --- | --- | --- | --- | --- | --- |
| 103% | 74.5% | 99.4% | 115% | 101% | GpH7-A5/GpH7-B3 variant P271_08L/GpL16-k0 (antibody, human IgG1, kappa, heterodimerized IgG1, one H chain mutated; also called He Ab; copies: 1 + 1 + 2) heavy 1: not shown heavy 2: not shown light: DIVMTQSPLSLPVTPGEPASISCQASESLVHSNRNTYLHWYLQKPGQSPQLLIYKVSNRFSGVPDRFSGSGSGTDFTLKISRVEAEDVGVYYCSQNTHVPPTFGQGTKVEIERTVAAPSVFIFPPSDEQLKSGTASVVCLLNNFYPREAKVQWKVDNALQSGNSQESVTEQDSKDSTYSLSSTLTLSKADYEKHKVYACEVTHQGLSSPVTKSFNRGEC |
| 102% | 98.2% | 72.4% | 122% | 101% | GpH7-A5/GpH7-B3 variant P271_10E/GpL16-k0 (antibody, human IgG1, kappa, heterodimerized IgG1, one H chain mutated; also called He Ab; copies: 1 + 1 + 2) heavy 1: not shown heavy 2: not shown light: DIVMTQSPLSLPVTPGEPASISCQASESLVHSNRNTYLHWYLQKPGQSPQLLIYKVSNRFSGVPDRFSGSGSGTDFTLKISRVEAEDVGVYYCSQNTHVPPTFGQGTKVEIERTVAAPSVFIFPPSDEQLKSGTASVVCLLNNFYPREAKVQWKVDNALQSGNSQESVTEQDSKDSTYSLSSTLTLSKADYEKHKVYACEVTHQGLSSPVTKSFNRGEC |
| 97.7% | 94% | 94.5% | 105% | 102% | GpH7-A5/GpH7-B3 variant P271_18N/GpL16-k0 (antibody, human IgG1, kappa, heterodimerized IgG1, one H chain mutated; also called He Ab; copies: 1 + 1 + 2) heavy 1: not shown heavy 2: not shown light: DIVMTQSPLSLPVTPGEPASISCQASESLVHSNRNTYLHWYLQKPGQSPQLLIYKVSNRFSGVPDRFSGSGSGTDFTLKISRVEAEDVGVYYCSQNTHVPPTFGQGTKVEIERTVAAPSVFIFPPSDEQLKSGTASVVCLLNNFYPREAKVQWKVDNALQSGNSQESVTEQDSKDSTYSLSSTLTLSKADYEKHKVYACEVTHQGLSSPVTKSFNRGEC |
| 90.3% | 86.2% | 106% | 84.9% | 102% | GpH7-A5/GpH7-B3 variant Q295_03V/GpL16-k0 (antibody, human IgG1, kappa, heterodimerized IgG1, one H chain mutated; also called He Ab; copies: 1 + 1 + 2) heavy 1: not shown heavy 2: not shown light: DIVMTQSPLSLPVTPGEPASISCQASESLVHSNRNTYLHWYLQKPGQSPQLLIYKVSNRFSGVPDRFSGSGSGTDFTLKISRVEAEDVGVYYCSQNTHVPPTFGQGTKVEIERTVAAPSVFIFPPSDEQLKSGTASVVCLLNNFYPREAKVQWKVDNALQSGNSQESVTEQDSKDSTYSLSSTLTLSKADYEKHKVYACEVTHQGLSSPVTKSFNRGEC |
| 93.5% | 79.8% | 83.3% | 98.2% | 101% | GpH7-A5/GpH7-B3 variant P271_13S/GpL16-k0 (antibody, human IgG1, kappa, heterodimerized IgG1, one H chain mutated; also called He Ab; copies: 1 + 1 + 2) heavy 1: not shown heavy 2: not shown light: DIVMTQSPLSLPVTPGEPASISCQASESLVHSNRNTYLHWYLQKPGQSPQLLIYKVSNRFSGVPDRFSGSGSGTDFTLKISRVEAEDVGVYYCSQNTHVPPTFGQGTKVEIERTVAAPSVFIFPPSDEQLKSGTASVVCLLNNFYPREAKVQWKVDNALQSGNSQESVTEQDSKDSTYSLSSTLTLSKADYEKHKVYACEVTHQGLSSPVTKSFNRGEC |
| 76.6% | 77.8% | 88.7% | 65.1% | 101% | GpH7-A5/GpH7-B3 variant P271_20W/GpL16-k0 (antibody, human IgG1, kappa, heterodimerized IgG1, one H chain mutated; also called He Ab; copies: 1 + 1 + 2) heavy 1: not shown heavy 2: not shown light: DIVMTQSPLSLPVTPGEPASISCQASESLVHSNRNTYLHWYLQKPGQSPQLLIYKVSNRFSGVPDRFSGSGSGTDFTLKISRVEAEDVGVYYCSQNTHVPPTFGQGTKVEIERTVAAPSVFIFPPSDEQLKSGTASVVCLLNNFYPREAKVQWKVDNALQSGNSQESVTEQDSKDSTYSLSSTLTLSKADYEKHKVYACEVTHQGLSSPVTKSFNRGEC |
| 95.8% | 87.6% | 100% | 96.9% | 101% | GpH7-A5/GpH7-B3 variant P271_12R/GpL16-k0 (antibody, human IgG1, kappa, heterodimerized IgG1, one H chain mutated; also called He Ab; copies: 1 + 1 + 2) heavy 1: not shown heavy 2: not shown light: DIVMTQSPLSLPVTPGEPASISCQASESLVHSNRNTYLHWYLQKPGQSPQLLIYKVSNRFSGVPDRFSGSGSGTDFTLKISRVEAEDVGVYYCSQNTHVPPTFGQGTKVEIERTVAAPSVFIFPPSDEQLKSGTASVVCLLNNFYPREAKVQWKVDNALQSGNSQESVTEQDSKDSTYSLSSTLTLSKADYEKHKVYACEVTHQGLSSPVTKSFNRGEC |

The next lines start with the binder.

| Binder | He/Con 2aR [1] | He/Con 3a [2] | He/Con 2aH [3] | He/Con 2b [4] | He/Con 1a [5] |
| --- | --- | --- | --- | --- | --- |
| GpH7-A5/GpH7-B3 variant Q295_02A/GpL16-k0 (antibody, human IgG1, kappa, heterodimerized IgG1, one H chain mutated; also called He Ab; copies: 1 + 1 + 2) heavy 1: not shown heavy 2: not shown light: DIVMTQSPLSLPVTPGEPASISCQASESLVHSNRNTYLHWYLQKPGQSPQLLIYKVSNRFSGVPDRFSGSGSGTDFTLKISRVEAEDVGVYYCSQNTHVPPTFGQGTKVEIERTVAAPSVFIFPPSDEQLKSGTASVVCLLNNFYPREAKVQWKVDNALQSGNSQESVTEQDSKDSTYSLSSTLTLSKADYEKHKVYACEVTHQGLSSPVTKSFNRGEC | 91.5% | 111% | 101% | 89.4% | 103% |
| GpH7-A5/GpH7-B3 variant P271_09D/GpL16-k0 (antibody, human IgG1, kappa, heterodimerized IgG1, one H chain mutated; also called He Ab; copies: 1 + 1 + 2) heavy 1: not shown heavy 2: not shown light: DIVMTQSPLSLPVTPGEPASISCQASESLVHSNRNTYLHWYLQKPGQSPQLLIYKVSNRFSGVPDRFSGSGSGTDFTLKISRVEAEDVGVYYCSQNTHVPPTFGQGTKVEIERTVAAPSVFIFPPSDEQLKSGTASVVCLLNNFYPREAKVQWKVDNALQSGNSQESVTEQDSKDSTYSLSSTLTLSKADYEKHKVYACEVTHQGLSSPVTKSFNRGEC | 109% | 97.7% | 80.4% | 135% | 100% |
| GpH7-A5/GpH7-B3 variant P271_19Q/GpL16-k0 (antibody, human IgG1, kappa, heterodimerized IgG1, one H chain mutated; also called He Ab; copies: 1 + 1 + 2) heavy 1: not shown heavy 2: not shown light: DIVMTQSPLSLPVTPGEPASISCQASESLVHSNRNTYLHWYLQKPGQSPQLLIYKVSNRFSGVPDRFSGSGSGTDFTLKISRVEAEDVGVYYCSQNTHVPPTFGQGTKVEIERTVAAPSVFIFPPSDEQLKSGTASVVCLLNNFYPREAKVQWKVDNALQSGNSQESVTEQDSKDSTYSLSSTLTLSKADYEKHKVYACEVTHQGLSSPVTKSFNRGEC | 95.1% | 84.6% | 90.7% | 99.3% | 102% |
| GpH7-A5/GpH7-B3 variant Q295_04F/GpL16-k0 (antibody, human IgG1, kappa, heterodimerized IgG1, one H chain mutated; also called He Ab; copies: 1 + 1 + 2) heavy 1: not shown heavy 2: not shown light: DIVMTQSPLSLPVTPGEPASISCQASESLVHSNRNTYLHWYLQKPGQSPQLLIYKVSNRFSGVPDRFSGSGSGTDFTLKISRVEAEDVGVYYCSQNTHVPPTFGQGTKVEIERTVAAPSVFIFPPSDEQLKSGTASVVCLLNNFYPREAKVQWKVDNALQSGNSQESVTEQDSKDSTYSLSSTLTLSKADYEKHKVYACEVTHQGLSSPVTKSFNRGEC | 82.8% | 75.1% | 87.4% | 72.6% | 101% |
| GpH7-A5/GpH7-B3 variant Q295_01G/GpL16-k0 (antibody, human IgG1, kappa, heterodimerized IgG1, one H chain mutated; also called He Ab; copies: 1 + 1 + 2) heavy 1: not shown heavy 2: not shown light: DIVMTQSPLSLPVTPGEPASISCQASESLVHSNRNTYLHWYLQKPGQSPQLLIYKVSNRFSGVPDRFSGSGSGTDFTLKISRVEAEDVGVYYCSQNTHVPPTFGQGTKVEIERTVAAPSVFIFPPSDEQLKSGTASVVCLLNNFYPREAKVQWKVDNALQSGNSQESVTEQDSKDSTYSLSSTLTLSKADYEKHKVYACEVTHQGLSSPVTKSFNRGEC | 60.3% | 76.6% | 62.5% | 51.6% | 96.1% |
| GpH7-A5/GpH7-B3 variant P271_11K/GpL16-k0 (antibody, human IgG1, kappa, heterodimerized IgG1, one H chain mutated; also called He Ab; copies: 1 + 1 + 2) heavy 1: not shown heavy 2: not shown light: DIVMTQSPLSLPVTPGEPASISCQASESLVHSNRNTYLHWYLQKPGQSPQLLIYKVSNRFSGVPDRFSGSGSGTDFTLKISRVEAEDVGVYYCSQNTHVPPTFGQGTKVEIERTVAAPSVFIFPPSDEQLKSGTASVVCLLNNFYPREAKVQWKVDNALQSGNSQESVTEQDSKDSTYSLSSTLTLSKADYEKHKVYACEVTHQGLSSPVTKSFNRGEC | 97.3% | 92.5% | 100% | 101% | 101% |
